Reference: patent publication US20200181245A1 (University of California, published 2020)

Legend:
[1] = target: T1, tau352 (human tau isoform 352, 15N-labelled, His tag removed by TEV cleavage) (human, UniProt P10636-2 2-352); assay: 2D 1H-15N HSQC NMR, about 1:1 molar ratio
T1 construct: mature; Uniformly 15N-labelled for NMR
Procedure: The interaction between scFv and tau352 was further studied by NMR spectroscopy. For this purpose, tau352 and 3RT antibody were recombinantly expressed in E. coli and HEK293 cells, respectively. 2D ¹H-¹⁵N heteronuclear single quantum coherence (HSQC) spectra were recorded on tau352 in absence and presence of 3RT antibody (FIG. 10A). The HSQC of tau352 has a narrow chemical shift dispersion indicative of an intrinsically disordered protein (FIG. 10A).
NMR experiments were recorded on a Bruker Avance 800 MHz spectrometer with 5% D₂O as lock solvent at 25° C. The 2D ¹H-¹⁵N HSQC experiments were recorded on a […] ¹⁵N labeled tau352 sample, for the interaction measurement an approximate 1:1 molar ratio between tau352 and scFv was used. For the 2D ¹⁵N HSQC, 512 data points were recorded in the indirect dimension with 128 scans per point for free tau352 and scFv-bound tau352.

[2] = target: T2, His and avidin-tagged 3RTau (352), recombinant full length 3R Tau protein (UniProt P10636-2 2-352, limits assumed); assay: ELISA and immunoblot
T2 construct: mature; Used for phage panning, ELISA (immobilized) and immunoblot; The His and avidin tags are not described further; also called 3RT protein; 3-repeat Tau
T2 sequence (P10636 other isoform, or with tags, fused parts or gaps limits assumed): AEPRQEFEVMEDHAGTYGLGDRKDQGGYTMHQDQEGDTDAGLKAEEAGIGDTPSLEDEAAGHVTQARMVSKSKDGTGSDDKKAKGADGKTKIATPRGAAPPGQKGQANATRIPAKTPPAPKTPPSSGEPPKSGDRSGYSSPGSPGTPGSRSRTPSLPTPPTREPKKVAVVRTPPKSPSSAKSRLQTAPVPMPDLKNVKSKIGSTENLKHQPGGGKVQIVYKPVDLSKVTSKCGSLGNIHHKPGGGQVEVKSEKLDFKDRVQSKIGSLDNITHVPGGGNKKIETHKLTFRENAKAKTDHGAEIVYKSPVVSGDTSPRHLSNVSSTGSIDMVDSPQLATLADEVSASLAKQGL

T1 sequence (P10636 other isoform, or with tags, fused parts or gaps): as the sequence (P10636 other isoform, or with tags, fused parts or gaps limits assumed) above

B1: 3RT single chain antibody (Clone 5F10) (scFv)
scFv: MEQVNLRESGAEVKKPGASVKVSCKVSGYTFTGYYMHWVRQAPGQGLEWMGWINSNSGATKYAQKFQGRVTMTRDTSITTAYMELSSLRSDDTAVYYCARGARDGYGFDYWGQGTLVTVLAGGGGSGGGGSGGGGSGAPSYVLTQPPSASGTPGQRVTISCSGGSSNIGSNAVSWYQQLPGTAPKLLIFTNDQRPSGVPDRFSGSKSGTSAPLAISGLQSEDESDYYCATWDDSLNGWVFGGGTKVTVRS
notes: Human scFv from a phage display library; It was expressed from mammalian scFV cassettes; also called 3RT scFV; 3RTau scFV
binding result [1]: binds | binding result [2]: binds
